Measured values taken from patent US20250042992A1 (University of California, published 2025).

T1: mouse DLK1 fused to mGFP, overexpressed on HEK293T cells (mouse, UniProt Q09163 24-385)
T1 construct: not shown: mGFP fluorescent protein fused to DLK1
T1 sequence: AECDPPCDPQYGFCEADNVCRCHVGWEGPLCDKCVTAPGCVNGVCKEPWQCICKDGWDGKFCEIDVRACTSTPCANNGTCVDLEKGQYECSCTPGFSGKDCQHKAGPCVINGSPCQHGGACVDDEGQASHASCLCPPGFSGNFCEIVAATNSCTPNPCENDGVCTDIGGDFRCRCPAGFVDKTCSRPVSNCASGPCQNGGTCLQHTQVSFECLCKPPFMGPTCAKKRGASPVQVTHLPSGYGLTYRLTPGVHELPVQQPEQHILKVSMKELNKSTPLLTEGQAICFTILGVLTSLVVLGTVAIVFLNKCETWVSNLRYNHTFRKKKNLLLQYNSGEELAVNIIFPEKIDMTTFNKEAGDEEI

T2: rat DLK1 fused to mGFP, overexpressed on HEK293T cells (rat, UniProt O70534 24-383)
T2 construct: whole, on cells; not shown: mGFP fluorescent protein fused to DLK1
T2 sequence (looked up): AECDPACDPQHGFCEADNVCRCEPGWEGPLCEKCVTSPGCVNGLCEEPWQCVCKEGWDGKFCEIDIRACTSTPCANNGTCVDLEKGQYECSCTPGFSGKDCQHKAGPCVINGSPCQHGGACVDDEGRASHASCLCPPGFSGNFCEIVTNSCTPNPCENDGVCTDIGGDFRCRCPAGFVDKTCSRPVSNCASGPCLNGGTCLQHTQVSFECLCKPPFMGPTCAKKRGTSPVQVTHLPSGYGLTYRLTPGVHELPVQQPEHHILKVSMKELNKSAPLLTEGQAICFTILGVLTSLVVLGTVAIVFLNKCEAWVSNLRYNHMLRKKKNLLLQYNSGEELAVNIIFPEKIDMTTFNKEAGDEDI

T3: DLK1 ECD-mFc long form (human DLK1-FL, isoform 1) (human, UniProt P80370 24-303)
T3 construct: also called long form of the human DLK1 protein (ELISA coat); not shown: mFc (monomeric immunoglobulin Fc domain)
T3 sequence: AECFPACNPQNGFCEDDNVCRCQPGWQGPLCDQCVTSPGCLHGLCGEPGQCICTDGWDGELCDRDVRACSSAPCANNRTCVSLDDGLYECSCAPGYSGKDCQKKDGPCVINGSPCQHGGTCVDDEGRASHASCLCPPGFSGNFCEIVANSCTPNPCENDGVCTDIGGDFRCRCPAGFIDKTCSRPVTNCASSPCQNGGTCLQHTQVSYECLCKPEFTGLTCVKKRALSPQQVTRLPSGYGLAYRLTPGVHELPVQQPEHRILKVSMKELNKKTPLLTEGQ

T4: DLK1 ECD-mFc short form (human DLK1-MB, isoform 2) (human, UniProt P80370 24-228)
T4 construct: also called short form of the human DLK1 protein (ELISA coat); not shown: mFc (monomeric immunoglobulin Fc domain)
T4 sequence: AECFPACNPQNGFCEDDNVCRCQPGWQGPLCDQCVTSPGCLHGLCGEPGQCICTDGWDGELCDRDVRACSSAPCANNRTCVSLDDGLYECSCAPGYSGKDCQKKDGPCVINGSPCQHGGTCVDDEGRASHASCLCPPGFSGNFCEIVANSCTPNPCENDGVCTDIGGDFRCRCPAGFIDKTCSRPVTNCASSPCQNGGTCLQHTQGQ

T5: monkey DLK1 fused to mGFP, overexpressed on HEK293T cells (monkey (crab-eating macaque), UniProt A0A2K5TMQ6 24-383)
T5 construct: whole, on cells; also called crab-eating macaque DLK1; not shown: mGFP fluorescent protein fused to DLK1
T5 sequence: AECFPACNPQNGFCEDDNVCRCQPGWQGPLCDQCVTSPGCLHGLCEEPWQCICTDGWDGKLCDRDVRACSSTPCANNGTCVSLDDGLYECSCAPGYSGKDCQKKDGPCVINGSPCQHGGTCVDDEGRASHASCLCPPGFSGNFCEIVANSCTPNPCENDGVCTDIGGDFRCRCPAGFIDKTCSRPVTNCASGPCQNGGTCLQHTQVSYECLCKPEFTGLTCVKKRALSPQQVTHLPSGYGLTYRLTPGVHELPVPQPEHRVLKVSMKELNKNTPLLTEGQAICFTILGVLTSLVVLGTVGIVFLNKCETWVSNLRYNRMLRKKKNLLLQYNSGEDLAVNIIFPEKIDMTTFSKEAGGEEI

B1: humanized anti-DLK1 antibody 04-0547-h2 (IgG1) (antibody, V domains shown)
VH: EVQLVESGGGLVQPGGSLRLSCAASGFSISDYYMAWVRQAPGKGLEWVANINYDGTNTYYADSVKGRFTISRDNSKNTLYLQMNSLRAEDTAVYYCVRSYYYYGMEYWGQGTTVTVSS
VL: DIQMTQSPSSLSASVGDRVTITCRASHDVSTAVAWYQQKPGKAPKLLIYSASYRYTGVPSRFSGSGSGTDFTLTISSLQPEDFATYYCQQHYRIPLTFGQGTKLEIK
notes: human kappa (P01834) and human IgG1 (P01857) constant regions
B2: humanized anti-DLK1 antibody 04-0561-F1 (IgG1) (antibody, V domains shown)
VH: QVQLQESGPGLVKPSETLSLTCTVSGFSLSIYSVHWVRQPPGKGLEWIGLIWGGGSTDYNPSLKSRVTISKDTSKNQVSLKLSSVTAADTAVYYCARKEGNYLWFAYWGQGTLVTVSS
VL: DIVMTQSPDSLAVSLGERVTMNCKSSQSLLQSSNQKNYLAWYQQKPGQPPKLLVYFASTRESGVPDRFSGSGSGTDFTLTISSVQAEDVAVYYCQQHYSIPLTFGQGTKLEIKR

How the values were obtained:
[1] = biological target: human DLK1 endogenously expressed on COR-L279 small cell lung carcinoma cells (human) (UniProt P80370); experiment: KinExA on cells, row CORL-279 cells(adherent)
[2] = biological target: T1, mouse DLK1 fused to mGFP, overexpressed …; experiment: KinExA on cells, row HEK293T Mouse DLK1mGFP mass
[3] = biological target: T2, rat DLK1 fused to mGFP, overexpressed …; experiment: KinExA on HEK293T DLK1mGFP Rat mass pop cells detached by Versene; Error% 3.17; 95% CI 1.82nM - 13.53nM; equilibrium curves 400pM, 50nM
[4] = biological target: T1, mouse DLK1 fused to mGFP, overexpressed …; experiment: KinExA on HEK293T DLK1mGFP Mouse mass pop cells detached by Versene; Error% 3.08; 95% CI 4.21nM - 26.32nM; equilibrium curves 400pM, 50nM
[5] = biological target: T3, DLK1 ECD-mFc long form (human DLK1-FL, …); experiment: ELISA, plate coated with DLK1 ECD-mFc long form
Description: (§1) Plates were incubated with DLK1 Abs serially diluted 2-fold starting from 400 ng/ml in 5% BSA/PBS at RT for 1.5 hrs. Mouse anti-human IgG Fc secondary antibody conjugated to HRP (Novus catalog number: NBP1-78623H) at 1:3000 dilution was applied to each well at 50 μl/well and further incubated at RT for 1 hr. The ELISA was developed first with Thermo Scientific Pierce 1-Step™ Ultra TMB-ELISA substrate solution and then with addition of sulfuric acid stop solution. The ELISA plate was read on a plate reader at 450 nm.

[6] = biological target: T3, DLK1 ECD-mFc long form (human DLK1-FL, …); experiment: ELISA, plate coated with long form of DLK1 ECD-mFc (isoform 1), anti-human IgG Fc-HRP, OD450nm
Description: as §1

[7] = biological target: T4, DLK1 ECD-mFc short form (human DLK1-MB, …); experiment: ELISA, plate coated with short form of DLK1 ECD-mFc (isoform 2), anti-human IgG Fc-HRP, OD450nm
Description: as §1

[8] = biological target: T5, monkey DLK1 fused to mGFP, …; experiment: KinExA on HEK293T DLK1mGFP Monkey mass pop cells detached by Versene; Error% 2.87; 95% CI 1.33nM - 3.45nM; equilibrium curves 400pM, 50nM

Binder	Kd [1] [nM]	Kd [2] [nM]	Kd [3] [nM]	Kd [4] [nM]	fold higher binding affinity than LegoChem 18A5 antibody for human DLK1-FL [5] [fold]	EC50 [6] [nM]	EC50 [7] [nM]	Kd [8] [nM]
B1	8.2	13	5.96	13				
B2					> 20	0.87	0.81	2.19
